How the values were obtained:
[1] = biological target: T1, MHF1;MHF2 (human;human, UniProt Q8N2Z9;A8MT69 1-138;1-81, |); test: fluorescence polarization
[2] = biological target: MHF1 K73A/R74A;MHF2;FANCM-F (human;human;human, UniProt Q8N2Z9;A8MT69;Q8IYD8 1-138;1-81;661-800, K73A;R74A||); test: EMSA
[3] = biological target: MHF1 K73A/R74A;MHF2;FANCM-F K675A/K676A (human;human;human, UniProt Q8N2Z9;A8MT69;Q8IYD8 1-138;1-81;661-800, K73A;R74A||K675A;K676A); test: EMSA
[4] = biological target: MHF1 R12A/R18A/K73A/R74A;MHF2;FANCM-F K686A/R690A/R693A (human;human;human, UniProt Q8N2Z9;A8MT69;Q8IYD8 1-138;1-81;661-800, R12A;R18A;K73A;R74A||K686A;R690A;R693A); test: EMSA
[5] = biological target: MHF1 1-107;MHF2;FANCM-F (human;human;human, UniProt Q8N2Z9;A8MT69;Q8IYD8 1-107;1-81;661-800, ||); test: not stated
[6] = biological target: T1, MHF1;MHF2; test: EMSA
[7] = biological target: MHF1;MHF2 K27A/K29A;FANCM-F (human;human;human, UniProt Q8N2Z9;A8MT69;Q8IYD8 1-138;1-81;661-800, |K27A;K29A|); test: EMSA
[8] = biological target: MHF1 K73A/R74A;MHF2 R11A/K12A;FANCM-F K675A/K676A (human;human;human, UniProt Q8N2Z9;A8MT69;Q8IYD8 1-138;1-81;661-800, K73A;R74A|R11A;K12A|K675A;K676A); test: EMSA
[9] = biological target: the molecule itself; test: crystal structure

T1 sequence (A8MT69 whole entry, one chain of several): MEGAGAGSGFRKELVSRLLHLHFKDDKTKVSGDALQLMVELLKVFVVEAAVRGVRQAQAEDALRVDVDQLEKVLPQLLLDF
Sequence of MHF1 R12A/R18A/K73A/R74A;MHF2;FANCM-F K686A/R690A/R693A (Q8N2Z9 whole entry R12A/R18A/K73A/R74A, chain 1 of 3): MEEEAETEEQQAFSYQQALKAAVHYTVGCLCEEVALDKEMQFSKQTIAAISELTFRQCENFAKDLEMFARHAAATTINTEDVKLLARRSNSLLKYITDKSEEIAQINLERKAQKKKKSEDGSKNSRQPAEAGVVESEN
Sequence of MHF1 R12A/R18A/K73A/R74A;MHF2;FANCM-F K686A/R690A/R693A (A8MT69 whole entry, chain 2 of 3): as the sequence (A8MT69 whole entry, one chain of several) above
Sequence of MHF1 R12A/R18A/K73A/R74A;MHF2;FANCM-F K686A/R690A/R693A (Q8IYD8 661-800 K686A/R690A/R693A, chain 3 of 3): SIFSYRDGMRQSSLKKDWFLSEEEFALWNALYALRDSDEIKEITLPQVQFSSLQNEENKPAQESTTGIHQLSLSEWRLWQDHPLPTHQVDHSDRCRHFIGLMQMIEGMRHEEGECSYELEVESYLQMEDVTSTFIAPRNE
Sequence of MHF1 K73A/R74A;MHF2;FANCM-F K675A/K676A (A8MT69 whole entry, chain 2 of 2): as the sequence (A8MT69 whole entry, one chain of several) above
Sequence of MHF1 K73A/R74A;MHF2;FANCM-F K675A/K676A (Q8IYD8 661-800 K675A/K676A, chain 3 of 2): as the sequence (Q8IYD8 661-800 K686A/R690A/R693A, chain 3 of 3) above, with K15A, K16A, A26K, A30R, A33R counted along it
Sequence of MHF1 1-107;MHF2;FANCM-F (A8MT69 whole entry, chain 2 of 2): as the sequence (A8MT69 whole entry, one chain of several) above
Sequence of MHF1 1-107;MHF2;FANCM-F (Q8IYD8 661-800, chain 3 of 2): as the sequence (Q8IYD8 661-800 K686A/R690A/R693A, chain 3 of 3) above, with A26K, A30R, A33R counted along it
Sequence of MHF1 K73A/R74A;MHF2;FANCM-F (A8MT69 whole entry, chain 2 of 2): as the sequence (A8MT69 whole entry, one chain of several) above
Sequence of MHF1 K73A/R74A;MHF2;FANCM-F (Q8IYD8 661-800, chain 3 of 2): as the sequence (Q8IYD8 661-800 K686A/R690A/R693A, chain 3 of 3) above, with A26K, A30R, A33R counted along it
Sequence of MHF1 K73A/R74A;MHF2 R11A/K12A;FANCM-F K675A/K676A (A8MT69 whole entry R11A/K12A, chain 2 of 2): as the sequence (A8MT69 whole entry, one chain of several) above, with R11A, K12A counted along it
Sequence of MHF1 K73A/R74A;MHF2 R11A/K12A;FANCM-F K675A/K676A (Q8IYD8 661-800 K675A/K676A, chain 3 of 2): as the sequence (Q8IYD8 661-800 K686A/R690A/R693A, chain 3 of 3) above, with K15A, K16A, A26K, A30R, A33R counted along it
Sequence of MHF1;MHF2 K27A/K29A;FANCM-F (A8MT69 whole entry K27A/K29A, chain 2 of 2): as the sequence (A8MT69 whole entry, one chain of several) above, with K27A, K29A counted along it
Sequence of MHF1;MHF2 K27A/K29A;FANCM-F (Q8IYD8 661-800, chain 3 of 2): as the sequence (Q8IYD8 661-800 K686A/R690A/R693A, chain 3 of 3) above, with A26K, A30R, A33R counted along it

B1: 59 bp dsDNA (FPA) (dsDNA)
DNA 1: ACGCTGCCGAATTCTACCAGTGCCTTGCTAGGACATCTTTGCCCACCTGCAGGTTCACC
DNA 2: GGTGAACCTGCAGGTGGGCAAAGATGTCCTAGCAAGGCACTGGTAGAATTCGGCAGCGT
- binding result [1]: binds

B2: 59 bp dsDNA (EMSA) (dsDNA)
DNA 1: B1 DNA 1
DNA 2: B1 DNA 2
- binding result [2]: binds
- binding result [3]: no binding
- binding result [4]: no binding
- binding result [5]: no binding
- binding result [6]: binds
- binding result [7]: binds
- binding result [8]: no binding

B3: MHF1^1-107 (truncated MHF1 with the C-terminal 31 residues deleted) (domain or fragment, human, UniProt Q8N2Z9 1-107, looked up)
chain: MEEEAETEEQQRFSYQQRLKAAVHYTVGCLCEEVALDKEMQFSKQTIAAISELTFRQCENFAKDLEMFARHAKRTTINTEDVKLLARRSNSLLKYITDKSEEIAQIN
- binding result [9]: binds

From publication PMC3646547 (Nature communications, 2012)
